According to patent publication US20050222029A1 (MYRIAD GENETICS, published 2005):

T1: Tumor Suppressor (TSG101) 231-391 (human, UniProt Q99816 231-390)
T1 construct: bait (Gal4 DBD fusion)
T1 sequence (looked up): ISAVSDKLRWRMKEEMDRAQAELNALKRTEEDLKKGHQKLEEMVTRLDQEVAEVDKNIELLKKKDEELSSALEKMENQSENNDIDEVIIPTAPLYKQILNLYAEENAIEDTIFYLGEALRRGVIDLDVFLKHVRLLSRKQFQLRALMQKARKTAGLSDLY

T2: Tumor Suppressor (TSG101) 240-391 (human, UniProt Q99816 240-390)
T2 construct: range 240-391; bait (Gal4 DBD fusion); also called TSG101 240-390
T2 sequence (looked up): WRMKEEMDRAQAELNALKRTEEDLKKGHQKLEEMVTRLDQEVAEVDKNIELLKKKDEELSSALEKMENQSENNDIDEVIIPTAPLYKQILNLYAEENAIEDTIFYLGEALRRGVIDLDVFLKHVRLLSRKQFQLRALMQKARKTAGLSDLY

T3: Tumor Suppressor (TSG101) 12-326 (human, UniProt Q99816 12-326)
T3 construct: bait (Gal4 DBD fusion)
T3 sequence (looked up): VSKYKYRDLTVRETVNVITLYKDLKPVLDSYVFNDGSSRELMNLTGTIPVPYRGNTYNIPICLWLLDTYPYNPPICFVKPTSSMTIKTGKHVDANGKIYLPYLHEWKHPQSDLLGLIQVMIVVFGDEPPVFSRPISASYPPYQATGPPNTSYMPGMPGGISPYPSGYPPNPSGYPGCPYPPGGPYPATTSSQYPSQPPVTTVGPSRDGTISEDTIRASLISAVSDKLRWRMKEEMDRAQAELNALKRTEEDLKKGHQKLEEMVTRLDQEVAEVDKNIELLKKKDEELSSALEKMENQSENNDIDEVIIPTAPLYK

B1: GrpE-Like protein cochaperone (PN19062) 40-89 (other)
chain: LEEDMGQSEQKADPPATEKTLLEEKVKLEEQLKETVEKYKRALADTENLR
notes: prey (Gal4 AD-HA fusion); also called PN19062/HMGE; GRPEL1
B2: Tropomyosin TM30pl (TPM4) 91-142 (other, human, UniProt P67936 91-142, looked up)
chain: MKVIENRAMKDEEKMEIQEMQLKEAKHIAEEADRKYEEVARKLVILEGELER
notes: prey (Gal4 AD-HA fusion)
B3: Zink finger protein 231 (ZNF231) 2308-2438 (other, human, UniProt Q9UPA5 2308-2438, looked up)
chain: EEPLPTTTPAAIKEAAGAPAPAPLAGQKPPADAAPGGGSGALSRPGFEKEEASQEERQRKQQEQLLQLERERVELEKLRQLRLQEELERERVELQRHREEEQLLVQRELQELQTIKHHVLQQQQEERQAQF
notes: prey (Gal4 AD-HA fusion)
B4: Tropomyosin TM30pl (TPM4) 79-142 (other, human, UniProt P67936 79-142, looked up)
chain: EAEKAADESERGMKVIENRAMKDEEKMEIQEMQLKEAKHIAEEADRKYEEVARKLVILEGELER
notes: prey (Gal4 AD-HA fusion)
B5: Chromosome-associated polypeptide HCAP (HCAP) 208-300 (other, human, UniProt Q9UQE7 208-300, looked up)
chain: EELAQYQKWDKMRRALEYTIYNQELNETRAKLDELSAKRETSGEKSRQLRDAQQDARDKMEDIERQVRELKTKISAMKEEKEQLSAERQEQIK
notes: prey (Gal4 AD-HA fusion)
B6: Rho-associated (ROCK1) 462-617 (enzyme, human, UniProt Q13464 462-617, looked up)
chain: KIMKELDEEGNQRRNLESTVSQIEKEKMLLQHRINEYQRKAEQENEKRRNVENEVSTLKDQLEDLKKVSQNSQLANEKLSQLQKQLEEANDLLRTESDTAVRLRKSHTEMSKSISQLESLNRELQERNRILENSKSQTDKDYYQLQAILEAERRDR
notes: prey (Gal4 AD-HA fusion); also called ROK; p160
B7: Keratin 8 293-394 (other, human, UniProt P05787 293-394, looked up)
chain: AGKHGDDLRRTKTEISEMNRNISRLQAEIEGLKGQRASLEAAIADAEQRGELAIKDANAKLSELEAALQRAKQDMARQLREYQELMNVKLALDIEIATYRKL
notes: prey (Gal4 AD-HA fusion)
B8: GTPase-activiating protein 1 1463-1568 (other, human, UniProt P46940 1463-1568, looked up)
chain: LKKLTELGTVDPKNKYQELINDIARDIRNQRRYRQRRKAELVKLQQTYAALNSKATFYGEQVDYYKSYIKTCLDNLASKGKVSKKPREMKGKKSKKISLKYTAARL
notes: prey (Gal4 AD-HA fusion); also called IQGAP1; IQGAP
B9: Keratin 5 349-475 (other, human, UniProt P13647 349-475, looked up)
chain: IANRSRTEAESWYQTKYEELQQTAGRHGDDLRNTKHEISEMNRMIQRLRAEIDNVKKQCANLQNAIADAEQRGELALKDARNKLAELEEALQKAKQDMARLLREYQELMNTKLALDVEIATYRKLLE
notes: prey (Gal4 AD-HA fusion)
B10: Keratin 5 325-446 (other, human, UniProt P13647 325-446, looked up)
chain: LSMDNNRNLDLDSIIAEVKAQYEEIANRSRTEAESWYQTKYEELQQTAGRHGDDLRNTKHEISEMNRMIQRLRAEIDNVKKQCANLQNAIADAEQRGELALKDARNKLAELEEALQKAKQDM
notes: prey (Gal4 AD-HA fusion)
B11: Keratin 5 384-475 (other, human, UniProt P13647 384-475, looked up)
chain: HEISEMNRMIQRLRAEIDNVKKQCANLQNAIADAEQRGELALKDARNKLAELEEALQKAKQDMARLLREYQELMNTKLALDVEIATYRKLLE
notes: prey (Gal4 AD-HA fusion)
B12: Keratin 5 347-485 (other, human, UniProt P13647 347-485, looked up)
chain: EEIANRSRTEAESWYQTKYEELQQTAGRHGDDLRNTKHEISEMNRMIQRLRAEIDNVKKQCANLQNAIADAEQRGELALKDARNKLAELEEALQKAKQDMARLLREYQELMNTKLALDVEIATYRKLLEGEECRLSGEG
notes: prey (Gal4 AD-HA fusion)
B13: Keratin 5 335-473 (other, human, UniProt P13647 335-473, looked up)
chain: LDSIIAEVKAQYEEIANRSRTEAESWYQTKYEELQQTAGRHGDDLRNTKHEISEMNRMIQRLRAEIDNVKKQCANLQNAIADAEQRGELALKDARNKLAELEEALQKAKQDMARLLREYQELMNTKLALDVEIATYRKL
notes: prey (Gal4 AD-HA fusion)
B14: Intersection 1 437-584 (other, human, UniProt Q15811 437-584, looked up)
chain: AKRELERQRQLEWERNRRQELLNQRNKEQEDIVVLKAKKKTLEFELEALNDKKHQLEGKLQDIRCRLTTQRQEIESTNKSRELRIAEITHLQQQLQESQQMLGRLIPEKQILNDQLKQVQQNSLHRDSLVTLKRALEAKELARQHLRD
notes: prey (Gal4 AD-HA fusion); also called Intersectin 1; ITSN1
B15: GTPase-activiating protein 1 1439-1565 (other, human, UniProt P46940 1439-1565, looked up)
chain: KKSKSVKEDSNLTLQEKKEKIQTGLKKLTELGTVDPKNKYQELINDIARDIRNQRRYRQRRKAELVKLQQTYAALNSKATFYGEQVDYYKSYIKTCLDNLASKGKVSKKPREMKGKKSKKISLKYTA
notes: as for B8
B16: Mitotic spindle coiled-coil related protein 942-1021 (other, human, UniProt Q96R06 942-1021, looked up)
chain: LGSDKSAFTRVASMVSLQPAETPGMEESLAEMSIMTTELQSLCSLLQESKEEAIRTLQRKICELQARLQAQEEQHQEVQK
notes: prey (Gal4 AD-HA fusion)
B17: Keratin 5 379-452 (other, human, UniProt P13647 379-452, looked up)
chain: LRNTKHEISEMNRMIQRLRAEIDNVKKQCANLQNAIADAEQRGELALKDARNKLAELEEALQKAKQDMARLLRE
notes: prey (Gal4 AD-HA fusion)
B18: GTPase-activiating protein 1 1404-1553 (other, human, UniProt P46940 1404-1553, looked up)
chain: LTEILETPATSEQEAEHQRAMQRRAIRDAKTPDKMKKSKSVKEDSNLTLQEKKEKIQTGLKKLTELGTVDPKNKYQELINDIARDIRNQRRYRQRRKAELVKLQQTYAALNSKATFYGEQVDYYKSYIKTCLDNLASKGKVSKKPREMKG
notes: as for B8
B19: GTPase-activiating protein 1 1406-1547 (other, human, UniProt P46940 1406-1547, looked up)
chain: EILETPATSEQEAEHQRAMQRRAIRDAKTPDKMKKSKSVKEDSNLTLQEKKEKIQTGLKKLTELGTVDPKNKYQELINDIARDIRNQRRYRQRRKAELVKLQQTYAALNSKATFYGEQVDYYKSYIKTCLDNLASKGKVSKK
notes: as for B8
B20: Intersection 1 436-547 (other, human, UniProt Q15811 436-547, looked up)
chain: AAKRELERQRQLEWERNRRQELLNQRNKEQEDIVVLKAKKKTLEFELEALNDKKHQLEGKLQDIRCRLTTQRQEIESTNKSRELRIAEITHLQQQLQESQQMLGRLIPEKQI
notes: as for B14
B21: GTPase-activiating protein 1 1439-1567 (other, human, UniProt P46940 1439-1567, looked up)
chain: KKSKSVKEDSNLTLQEKKEKIQTGLKKLTELGTVDPKNKYQELINDIARDIRNQRRYRQRRKAELVKLQQTYAALNSKATFYGEQVDYYKSYIKTCLDNLASKGKVSKKPREMKGKKSKKISLKYTAAR
notes: as for B8
B22: Kinesin Family Member 5A (KIF5A) 564-725 (other, human, UniProt Q12840 564-725, looked up)
chain: IVGNGEIKLPVEISGAIEEEFTVARLYISKIKSEVKSVVKRCRQLENLQVECHRKMEVTGRELSSCQLLISQHEAKIRSLTEYMQSVELKKRHLEESYDSLSDELAKLQAQETVHEVALKDKEPDTQDADEVKKALELQMESHREAHHRQLARLRDEINEKQ
notes: prey (Gal4 AD-HA fusion)
B23: novel protein PN9667 268-422 (other)
chain: KAKEKEVEKIEQNGLALIQNKKEDVSSIVMSTLRELGQTWANLDHMVGQLKILLKSVLDQWSSHKVAFDKINSYLMEARYSLSRFRLLTGSLEAVQVQVDNLQNLQDDLEKQERSLQKFGSITNQLLKECHPPVTETLTNTLKEVNMRWNNLLEE
notes: prey (Gal4 AD-HA fusion)
B24: Golgi autoantigen (Golgin-84) 198-497 (other, human, UniProt Q8TBA6 198-497, looked up)
chain: SKENVSSNAACPDHTPTPNDDGKSHELSNLRLENQLLRNEVQSLNQEMASLLQRSKETQEELNKARARVEKWNADHSKSDRMTRGLRAQVDDLTEAVAAKDSQLAVLKVRLQEADQLLSTRTEALEALQSEKSRIMQDQSEGNSLQNQALQTFQERLHEADATLKREQESYKQMQSEFAARLNKVEMERQNLAEAITLAERKYSDEKKRVDELQQQVKLYKLNLESSKQELIDYKQKATRILQSKEKLINSLKEGSGFEGLDSSTASSMELEELRHEKEMQREEIQKLMGQIHQLRSELQ
notes: prey (Gal4 AD-HA fusion)
B25: Golgi autoantigen (Golgin-84) 198-501 (other, human, UniProt Q8TBA6 198-501, looked up)
chain: SKENVSSNAACPDHTPTPNDDGKSHELSNLRLENQLLRNEVQSLNQEMASLLQRSKETQEELNKARARVEKWNADHSKSDRMTRGLRAQVDDLTEAVAAKDSQLAVLKVRLQEADQLLSTRTEALEALQSEKSRIMQDQSEGNSLQNQALQTFQERLHEADATLKREQESYKQMQSEFAARLNKVEMERQNLAEAITLAERKYSDEKKRVDELQQQVKLYKLNLESSKQELIDYKQKATRILQSKEKLINSLKEGSGFEGLDSSTASSMELEELRHEKEMQREEIQKLMGQIHQLRSELQDMEA
notes: prey (Gal4 AD-HA fusion)
B26: Accessory proteins BAP31/BAP29 (BAP31) 184-246 (other, human, UniProt P51572 184-246, looked up)
chain: LKADLQKLKDELASTKQKLEKAENQVLAMRKQSEGLTKEYDRLLEEHAKLQAAVDGPMDKKEE
notes: prey (Gal4 AD-HA fusion)

target: T1, Tumor Suppressor (TSG101) 231-391; assay: yeast two-hybrid

| binding result | Binder |
| --- | --- |
| binds | B1 |
| binds | B2 |
| binds | B3 |
| binds | B4 |
| binds | B5 |
| binds | B6 |

target: T2, Tumor Suppressor (TSG101) 240-391; assay: yeast two-hybrid

| binding result | Binder |
| --- | --- |
| binds | B7 |
| binds | B8 |
| binds | B9 |
| binds | B10 |
| binds | B11 |
| binds | B12 |
| binds | B13 |
| binds | B14 |
| binds | B15 |
| binds | B16 |
| binds | B17 |
| binds | B18 |
| binds | B19 |
| binds | B20 |
| binds | B21 |

target: T3, Tumor Suppressor (TSG101) 12-326; assay: yeast two-hybrid

| binding result | Binder |
| --- | --- |
| binds | B22 |
| binds | B23 |
| binds | B24 |
| binds | B25 |
| binds | B26 |
